We go through seven molecules from US20110201105A1, “LACTATION-ASSOCIATED POLYPEPTIDES” (Dairy Australia Limited, priority 2007, published 2011).

For one series, the system named is AGS cells. Put plainly: Cell growth using bovine cathelicidin variants in AGS cells (SRB assay). Further details: unit not given here. It is filed as cell-based, human. Particulars: 72 hours; for cell growth Replicate 3: -ve control 0.233; for cell growth Replicate 1: -ve control 0.247; for cell growth Replicate 4: -ve control 0.265; for cell growth Replicate 2: -ve control 0.316; for cell growth Mean: -ve control mean 0.265. As for the experimental part: A cellular growth assay was performed using seven bovine cathelicidin (CATHL) variants, namely CATHL1, 4, and 6 which are known in the art (the relevant sequences can be obtained using the following hyperlink: http://www.ncbi.nlm.nih.gov/entrez/query.fcqi?db=unigene&cmd=search&term=cathelicidin) and bovine Cathelicidins 8, 9, 10 and 11 (being LAMs 32.8, 32.9, 32.10 and 32.11, respectively) as identified herein and which are derived from LAM 32. The bovine cathelicidin associated LAMs were derived by sequence comparison to the tammar polynucleotide sequence of LAM 32.
The growth rate of AGS cells was assessed in the presence of the cathelicidins. Equal numbers of human gastric epithelial AGS cells were cultured in either control media or media conditioned with bovine cathelicidins for 72 hours in a 1:10 dilution of serum and antibiotic-free Optimem. Cells were then fixed and a Sulforhodamine B (SRB) colorimetric assay was undertaken as described in Journal of Immunological Methods 208: 151-158, K. T. Papazisis, G. D. Geromichalos, K. A. Dimitriadis, A. H. Kortsaris (1997), ‘Optimization of the sulforhodamine B colorimetric assay’.
Briefly, cells were fixed directly by incubation with 10% trichloroacetic acid for 1 hour at 4° C., washed with water, air-dried overnight and then stained with 0.4% w/v sulforhodamine B, 1% acetic acid solution for 10 minutes at room temperature. Cell were again washed with 1% acetic acid and air-dried, then counted in triplicate.

For a further series, the system named is chicks. Put plainly: Chick growth assay (in ovo injection, weight at hatching). It is filed as in vivo. Particulars: for Chick weight: bovine polypeptides in conditioned media, 1 ml in ovo on day 16 of incubation, weighed on day of hatching, Saline 51.0; for death / overall condition of chick: in ovo injection on day 16 of incubation. The procedure:
FIG. 5. Chick growth assay by measuring weight. 10 LAMs (being bovine homologues having homology to specific Tammar ESTs), 3 known bovine cathelicidins, and four bovine cathelicidin variants were tested. Conditioned media containing a LAM polypeptides or bovine cathelicidins or variants thereof was diluted in a total of 1 ml of normal saline. Eggs on day 16 of incubation were injected with 1 ml of the media containing the into the broad end of the egg. Chicks were weighed on day of hatching. The overall condition of the chick was assessed including the possible presence of stumpy legs and/or loss of down feathers.
Conditioned media containing LAM polypeptides or bovine cathelicidins or variants thereof were diluted in a total of 1 ml of normal saline. Eggs on day 16 of incubation were injected in ovo with 1 ml of LAM polypeptides or bovine cathelicidins or variants thereof into the broad end of the egg. Chicks were weighed on day of hatching. Controls included saline only, or saline and 10 mg/ml of a peptide as a random peptide control.
As set out in Table 23, the left column indicates the polypeptide used in the assay while the right column contains chick weight in grams as a measurement of chick growth. Bolded numbers represent a chick(s) larger than the controls and more than 2 standard deviations from the mean. In addition, bolded numbers represent chicks that have been killed. The mean represents the weight of all the chicks tested within this experiment.

Another series deals with HC11 cells. Put plainly: Cell growth with cathelicidins in HC11 cells. It is filed as cell-based, mouse. Further details: cell growth Rep. 1 / cell growth Rep. 2 / cell growth Rep. 3 / cell growth Rep. 4 / cell growth Mean: unit not given here. As to conditions: 72 hours; for cell growth Rep. 1: 1:10 dilution conditioned media, -ve control 0.727; for cell growth Rep. 2: -ve control 0.76; for cell growth Rep. 3: -ve control 0.786; for cell growth Rep. 4: -ve control 0.808; for cell growth Mean: -ve control mean 0.77025; for cell growth versus control (significance): P<0.05 t-test. The procedure:
FIG. 2. Cellular growth assay with HC11 cells. Mouse mammary epithelial cells, HC11 cells, were grown in media conditioned with: mock transfection (control), LAM32, LAM32a or LAM32b for 72 hours. Samples were performed in triplicate and the cells from each triplicate counted in triplicate. […] LAM 32 is represented as set forth in SEQ ID NO: 188, and two splice variants thereof, designated LAM32a and 32b as set forth in SEQ ID NO: 215 and 207 respectively.
As shown in FIG. 2 equal numbers of mouse mammary HC11 cells were grown in the presence of either a negative control or tammar wallaby cathelicidin-associated polypeptide, namely LAM 32 (SEQ ID NO: 188), LAM 32a (SEQ ID NO: 215) or LAM 32b (SEQ ID NO: 207) in order to determine the effect of these LAMs on cellular growth.
HC11 cells were initially plated at 50 percent confluency and cultured for 72 hours in a 1:10 dilution of serum and antibiotic free Optimem and media conditioned with cathelicidin associated polypeptides. The medium was removed and then washed gently for 2 minutes with Mg^2+- and Ca^2+-free phosphate buffered saline (PBS), 0.05% Trypsin and 1:5000 Versene to disrupt cell aggregates. Cells were collected by scraping and washed twice by resuspension in complete medium followed by centrifugation. The cells were again resuspended and counted in triplicate using a Luber haemocytometer.
(§1) The cells were counted in triplicate using a Luber haemocytometer. The negative control was media alone (i.e. conditioned media […] insertless vector). The samples were deemed statistically significant using a t-test comparing the control with the sample if the values of cell growth were 2 standard deviations higher than the mean of the negative control.

The next series relates to mouse ES cells. Nature of the series: Cell growth with cathelicidins in mouse ES cells. It is filed as cell-based. Further details: cell growth Rep. 1 / cell growth Rep. 2 / cell growth Rep. 3 / cell growth Mean: unit not given here. Particulars: 24 hours; for cell growth Rep. 1: 1:10 dilution conditioned media, -ve control 0.34; for cell growth Rep. 3: -ve control 0.352; for cell growth Rep. 2: -ve control 0.474; for cell growth Mean: -ve control mean 0.388666667. As for the experimental part: Mouse ES cells were plated at 50 percent confluency and cultured for 24 hours in a 1:10 dilution of serum and antibiotic free Optimem and media conditioned with cathelicidin associated polypeptides. The medium was removed and then washed gently for 2 minutes with Mg^2+- and Ca^2+-free phosphate buffered saline 0.05% Trypsin and 1:5000 Versene to disrupt cell aggregates. Cells were collected by scraping and washed twice by resuspension in complete medium followed by centrifugation. The cells were again resuspended and counted in triplicate using a Luber haemocytometer.
as §1

For the molecule “CATHL4: bovine cathelicidin 4, known in the art (ILPWKWPWWPWRR; UniProt P33046 131-143, looked up) [reference compound]”, in the series with AGS cells, the “cell growth Replicate 3” value was found to be 0.409, the “cell growth Replicate 1” value came out at 0.626, the “cell growth Replicate 4” value was 0.500 and the “cell growth Replicate 2” value is recorded as 0.465. The “cell growth Mean” value with AGS cells was 0.500. The molecule also came in with a Chick weight in the series on chicks of 49.7 grams.

B1: LAM 32a: splice variant of tammar wallaby LAM 32, SEQ ID NO 215 (protein)
chain: MRDSTMQVLLLVLGLLSLMTSLACAQDQPYQDVLNRFIQEYNTKSESESLFRLSVLNLPPEESNDPAVPLLKFTIRETVCPKTEHRNADECDFKKNGLVKQCIGTIDLDSPNPSVDISCDRPAKVKRGLWESLKRKATKLGDDIRNTLRNFKIKFPVPRQG
As for B1, in the series with HC11 cells, the “cell growth Rep. 1” value stood at 0.958, the “cell growth Rep. 2” value was determined as 0.977, the “cell growth Rep. 3” value amounted to 1.008 and the “cell growth Rep. 4” value is listed as 1.102. Besides, in the series on HC11 cells, the “cell growth Mean” value was 1.011 and the “cell growth versus control (significance)” value is “significantly more cells”. In the series with mouse ES cells, the “cell growth versus control (significance)” value is “significantly different growth from the control”, the “cell growth Rep. 1” value came out at 0.575, the “cell growth Rep. 3” value turned out to be 0.517 and the “cell growth Rep. 2” value was 0.605. Moreover, the “cell growth Mean” value in the series on mouse ES cells was 0.5657.

B2: LAM 32.9: bovine cathelicidin variant, SEQ ID NO 173 (protein)
chain: METPRASLSLGRCSLWLLLLGLVLPSASAQALSYREAVLRAVDQFNERSSEANLYRLLELDPTPNDVSYEGIWAGRPASWGAGRQIRGRRMSPNPVSPTLTHDQDLDPGTRKPVSFRVKETDCPRTSQQPLEQCDFKENGVSLGAGEKNGRCFPGIGQRAWGRLPIPGRRPGGYGHRGFSLTLNLPFQLVKTVCGTARHQHN
For the molecule B2, in the series on AGS cells, the “cell growth Replicate 3” value was 0.220, the “cell growth Replicate 1” value was 0.246, the “cell growth Replicate 4” value is reported as 0.229 and the “cell growth Replicate 2” value turned out to be 0.220. Moreover, the “cell growth Mean” value with AGS cells was 0.229. In addition, in the series with chicks, the Chick weight is on record as 46.5 grams; the “death / overall condition of chick” value is “caused stumpy legs and loss of down”.

B3: LAM 32.11: bovine cathelicidin variant, SEQ ID NO 177 (protein)
chain: METQRASLSLGRWSLWLLLLGLVLPSASAQALSYREAMLRAVDQLNERSSEAHLYRLLGASTRPPSGHELGRGTGDEPFSCPALATLLPLHSGCTSCQEGTFPSRWVPTSSRKAVSRDLGHLPAPGYPCLSISAVGIGTLHTWLRFPGLLGSSRDGGVTGSVR
B3: in the series on AGS cells, the “cell growth Replicate 3” value worked out at 0.563, the “cell growth Replicate 1” value amounted to 0.365, the “cell growth Replicate 4” value came out at 0.431 and the “cell growth Replicate 2” value came to 0.366. Moreover, in the series on AGS cells, the “cell growth Mean” value is on record as 0.431. Besides, in the series on chicks (body weight relative to mean/median of all chicks tested), the “chick size versus controls” value is reported as “produced a chick larger than the controls”. Further, the Chick weight in the series on chicks is 59^ grams.

B4: LAM 32.10: bovine cathelicidin variant, SEQ ID NO 175 (protein)
chain: METQRASLSLGRWSLWLLLLGLVLPSASAQALSYREAMLRAVDQLNERSSEAHLYRLLELDPPPDMSWGGDRGRAFLLPALATLLPLHSGCTSCQEGTFPSRWVPTSSRKASQTWVISQHQASCLSISAVGIGTLHTWLKFPGLLGAPGMGGS
As to B4, in the series on AGS cells, the “cell growth Replicate 3” value came to 0.534, the “cell growth Replicate 1” value is 0.602, the “cell growth Replicate 4” value amounted to 0.514 and the “cell growth Replicate 2” value was 0.405. In addition, the “cell growth Mean” value with AGS cells turned out to be 0.514. In the series with chicks, the Chick weight is on record as 53.8 grams.

B5: LAM 32.8: bovine cathelicidin variant, SEQ ID NO 171 (protein)
chain: METPRASLSLGRWSLWLLLLGLALPSAQRPGPQLQGGRASCLMESASMKKSSEANLYRLLELDPPPKEDDENPNIPKPVSFRVKETVCPRTSQQSPEQCDFKENGLLKYCVGTVSRWDQVGSNFDITCAAPQSVGGLQAWVGRYYVLGKSMAQLLFQ
Take B5: in the series with AGS cells, the “cell growth Replicate 3” value came to 0.261, the “cell growth Replicate 1” value was 0.441, the “cell growth Replicate 4” value was 0.361 and the “cell growth Replicate 2” value came out at 0.382. The “cell growth Mean” value in the series on AGS cells was found to be 0.361. For the same molecule, in the series on chicks, the Chick weight result is listed as “Killed” and the “death / overall condition of chick” value is “caused death of chicks”.

B6: LAM 32b: splice variant of tammar wallaby LAM 32, SEQ ID NO 207 (protein)
chain: MRGLTMQVLLLVLGLLSLMTPLGYAQDQPYQDVLNRFIQEYNTKSESESLFRLSVLNLPSQESNDPTAPQLLKFTIRETVCSKSEHRNPEECDFKKNGVRVSWAGKGF
Consider B6, for which, in the series on HC11 cells, the “cell growth Rep. 1” value was found to be 0.89, the “cell growth Rep. 2” value turned out to be 0.841, the “cell growth Rep. 3” value is given as 0.862 and the “cell growth Rep. 4” value came to 0.832. Further, in the series on HC11 cells, the “cell growth Mean” value worked out at 0.8562 and the “cell growth versus control (significance)” value is recorded as “significantly more cells”. In the series with mouse ES cells, the “cell growth versus control (significance)” value was “significantly different growth from the control”, the “cell growth Rep. 1” value was 0.676, the “cell growth Rep. 3” value was 0.693 and the “cell growth Rep. 2” value came out at 0.677. Further, the “cell growth Mean” value with mouse ES cells stood at 0.682.
